Laboratory results taken from the supplement of paper PMC9170038.

How the values were obtained:
[1] = test system: MS2 coat protein; assay: apparent KD of MS2 coat protein, switch ON state; designed switch direction (-1 OFF switch, 1 ON switch): 1; higher = weaker reporter binding; conditions: FMN input: 0 or 200 uM; Eterna round: R93 (includes R88 designs)
Method in brief: (§1)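 On-chip transcription from Illumina sequencing clusters produced the designed RNA switches. These were titrated with SNAP-549-labelled MS2 coat protein (twofold steps, 0.7 or 1.5 nM to 3 µM) in 100 mM Tris-HCl pH 7.5, 80 mM KCl, 4 mM MgCl2, with or without constant ligand. The apparent KD given is the per-design median of normalised cluster binding-curve fits.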

[2] = test system: MS2 coat protein; assay: apparent KD of MS2 coat protein, switch OFF state (with FMN for OFF switches, without FMN for ON switches); designed switch direction (-1 OFF switch, 1 ON switch): 1; higher = weaker reporter binding; conditions: FMN input: 0 or 200 uM; Eterna round: R93 (includes R88 designs)
Method in brief: as §1

## AGGAAACAUGAGGAUCACCCAUGUAAAUAUGGGCGAGGAUAUCGAAAGAAAAGAAAGAAACGAGAAGGCGCAAAAG [GU on the end]
[1]
  apparent KD of MS2 coat protein: 0.0492 µM
[2]
  apparent KD of MS2 coat protein: 0.295 µM

## AGGAAACAUGAGGAUCACCCAUGUAUAAAAAUGGGAGGAUAUACUAAGACGAAAGUCAUAGUAGAAGGCCUAAAAA [76%, Meechl, 8]
[1]
  apparent KD of MS2 coat protein: 0.0243 µM
[2]
  apparent KD of MS2 coat protein: 0.0526 µM

## AGUAAACAUGAGGAUCACCCAUGUGGUGGCCCAUGAGGAUAUCCAUGCGCAAUGCGCAUAGGAGAAGGCAUAGCCA [Enenerla]
[1]
  apparent KD of MS2 coat protein: 0.125 µM
[2]
  apparent KD of MS2 coat protein: 0.0526 µM

## AGUCAACAUGAGGAUCACCCAUGUCUGAGGGCAUGAGGAUAUCUAGAUGGGCAGCAUGAUAGAGAAGGCAUGCGCC [Betea]
[1]
  apparent KD of MS2 coat protein: 0.185 µM
[2]
  apparent KD of MS2 coat protein: 0.199 µM

## AUAAAACAUGAGGAUCACCCAUGUAGAAAUAUGGGAGGAUAUACAAGGACGAAAGUCAAGGUAGAAGGCCUAAAAG [Mat - Same State 1 - Meechl mod - D119]
[1]
  apparent KD of MS2 coat protein: 0.025 µM
[2]
  apparent KD of MS2 coat protein: 0.126 µM

## AUAAAACAUGAGGAUCACCCAUGUCAGAAAUGGCAAGGAUAUAGAAAAUAAAAAUAAAAACUAGAAGGUGCAAAAU [Meechl SS1 R2 m1]
[1]
  apparent KD of MS2 coat protein: 0.0749 µM
[2]
  apparent KD of MS2 coat protein: 0.198 µM

## AUAAAAGAAAGGCAGGAUAUCCAAAGAAAAACAUGAGGAUCACCCAUGUAAAGAAAGAAAAAGUGGGAGAAGGGCCAAAAGAAUA [73%, More Fisker Same State 2, D3, 3]
[1]
  apparent KD of MS2 coat protein: 0.0253 µM
[2]
  apparent KD of MS2 coat protein: 0.0276 µM

## AUAAAUAAAGAUCAGGAUAUUAUAAAGAUAACAUGAGGAUCACCCAUGUAAAACAAAAUUAUGGGUAAGAAGGGAUCAAAUAAAU [SS2 M 20]
[1]
  apparent KD of MS2 coat protein: 0.0469 µM
[2]
  apparent KD of MS2 coat protein: 0.184 µM

## AUAAAUAAAGUUAAGGAUAUUAUAAAGAAAACAUGAGGAUCACCCAUGUAAAAGAAAAUAGUGGGUAAGAAGGUAACAAAUAAAU [SS2 M 18]
[1]
  apparent KD of MS2 coat protein: 0.0231 µM
[2]
  apparent KD of MS2 coat protein: 0.0427 µM

## AUAACACAUGAGGAUCACCCAUGUAGAUACAAGUCAGGAUAUGCAACCUCAUGAAAAAAAGCAGAAGGGACAAUAA [SS 1 Tesla 3]
[1]
  apparent KD of MS2 coat protein: 0.0275 µM
[2]
  apparent KD of MS2 coat protein: 0.0854 µM

## AUAACACAUGAGGAUCACCCAUGUAGAUACCCGUCAGGAUAUGCAAAGAAAAUAAACAAAGCAGAAGGGACAAUAA [SS 1 Tesla 2]
[1]
  apparent KD of MS2 coat protein: 0.0212 µM
[2]
  apparent KD of MS2 coat protein: 0.0304 µM

## AUACAAACGUAUGAGGAUAUCCUUAAUAAAACAUGAGGAUCACCCAUGUGAAUAAAAUAACAAUUGGAGAAGGCAUACGUACAAU [Mat - Same state - Malcolm Mod - D137]
[1]
  apparent KD of MS2 coat protein: 0.0166 µM
[2]
  apparent KD of MS2 coat protein: 0.0189 µM

## AUAUAUAUAAGGUAGGAUAUACUAAAGUAAACAUGAGGAUCACCCAUGUAAAGAAAGAAACUCAUGUAGAAGGACCAUAUAUAUAU [Ex 6 sub 1]
[1]
  apparent KD of MS2 coat protein: 0.0248 µM
[2]
  apparent KD of MS2 coat protein: 0.163 µM

## AUAUAUAUAAGGUAGGAUAUUCUAAAGUAAACAUGAGGAUCACCCAUGUAAAGAAAGAAACUCAUGGAGAAGGACCAUAUAUAUA [Modifying Tesla's highscorer (77%) - Adding G segment]
[1]
  apparent KD of MS2 coat protein: 0.0199 µM
[2]
  apparent KD of MS2 coat protein: 0.0848 µM

## CAAAACAAAACAUAGGAUAUCAAAACAAAAACAUGAGGAUCACCCAUGUGGAAACAUGAGAAGGAUGAGAAGGAAAACAAAACAA [Meechl SS2 R2 m7]
[1]
  apparent KD of MS2 coat protein: 0.025 µM
[2]
  apparent KD of MS2 coat protein: 0.0496 µM

## CAGAUACAUGAGGAUCACCCAUGUUAGGUAGAACAAGGAUAUCUAGAUAGAUAAAAAUAUAGAGAAGGUGUAUAAC [JR_SS001_Sub207]
[1]
  apparent KD of MS2 coat protein: 0.0198 µM
[2]
  apparent KD of MS2 coat protein: 0.0242 µM

## CAGCGCUGUCGAGAGGAUAUGCGGUGAAGGACAUGAGGAUCACCCAUGUAAGCGAUAGCAUUACGGUAGAAGGCUCUGCAGCUGC [Ceriso]
[1]
  apparent KD of MS2 coat protein: 0.0957 µM
[2]
  apparent KD of MS2 coat protein: 0.143 µM

## CAUAGACAUGAGGAUCACCCAUGUAGAAUUAUGGGAGGAUAUACAAAGACGAGAGUCAGAGUAGAAGGCCUAGGAC [salish99-ss1-164]
[1]
  apparent KD of MS2 coat protein: 0.0189 µM
[2]
  apparent KD of MS2 coat protein: 0.0283 µM

## CCGAGGAAGAGAGAGGAUAUCCAAAGGAAAACAUGAGGAUCACCCAUGUAAAAGGUAGGAAAUUGGGAGAAGGCUCAAGAGAGAG [salish99-ss2-072]
[1]
  apparent KD of MS2 coat protein: 0.0387 µM
[2]
  apparent KD of MS2 coat protein: 0.0471 µM

## CCUAGGAAGAGAGAGGAUAUCCAAAGGAAAACAUGAGGAUCACCCAUGUAAAAGGUAGGAAAUUGGGAGAAGGCUCAAGAGAGAG [salish99-ss2-088]
[1]
  apparent KD of MS2 coat protein: 0.0209 µM
[2]
  apparent KD of MS2 coat protein: 0.0239 µM

## CGAAAGGAGAGAGAGGAUAUCCAAAGGAAAACAUGAGGAUCACCCAUGUAGAAGGUAGGAGAUUGGGAGAAGGCUCAAGCAAAAC [salish99-ss2-157]
[1]
  apparent KD of MS2 coat protein: 0.0159 µM
[2]
  apparent KD of MS2 coat protein: 0.0186 µM
